Data on 17 molecules can be found in article PMC7020754.

Changes are numbered by the printed parent chain.

Sequences and labels used below:
T1: Rv0023 (XRE family transcription regulator) (Mycobacterium tuberculosis, UniProt P9WMI3 1-256)
T1 sequence: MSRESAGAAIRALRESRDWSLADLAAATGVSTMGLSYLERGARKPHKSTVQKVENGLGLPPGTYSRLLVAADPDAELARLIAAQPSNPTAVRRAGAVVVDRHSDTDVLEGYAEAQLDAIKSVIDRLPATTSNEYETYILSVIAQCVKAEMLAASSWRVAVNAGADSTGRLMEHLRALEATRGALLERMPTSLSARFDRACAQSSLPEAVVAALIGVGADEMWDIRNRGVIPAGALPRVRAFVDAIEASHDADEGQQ

B1: M0 (dsDNA)
DNA 1: AGAGCCCGCCACAGACATATACGCTTTTGCCTATGTTTC
DNA 2: GAAACATAGGCAAAAGCGTATATGTCTGTGGCGGGCTCT
B2: M5 (dsDNA)
DNA 1: B1 DNA 1 with T25G
DNA 2: B1 DNA 2 with A15C
B3: M1 (dsDNA)
DNA 1: B1 DNA 1 with T18G
DNA 2: B1 DNA 2 with A22C
B4: M9 (dsDNA)
DNA 1: B1 DNA 1 with G23T
DNA 2: B1 DNA 2 with C17A
B5: M10 (dsDNA)
DNA 1: B1 DNA 1 with C22T
DNA 2: B1 DNA 2 with G18A
B6: M4 (dsDNA)
DNA 1: B1 DNA 1 with A21G
DNA 2: B1 DNA 2 with T19C
B7: F4 (dsDNA)
DNA 1: TGGCCGCGCCGGCCGACTCACGGCTCACCGCACGCTCCGGCCATAAGCCGGATACTACCC
DNA 2: GGGTAGTATCCGGCTTATGGCCGGAGCGTGCGGTGAGCCGTGAGTCGGCCGGCGCGGCCA
B8: OL4 (dsDNA)
DNA 1: ACGCTTTTGCCTATGTTTCGTTCAACAAGGAGGCCGGCAC
DNA 2: GTGCCGGCCTCCTTGTTGAACGAAACATAGGCAAAAGCGT
B9: F6 (dsDNA)
DNA 1: GCTCAGGCCCATGGTGCTTACGCCAGTGGCGGCCGCCAGGTCCGCGAGGGACCAGTCACG
DNA 2: CGTGACTGGTCCCTCGCGGACCTGGCGGCCGCCACTGGCGTAAGCACCATGGGCCTGAGC
B10: OL3 (dsDNA)
DNA 1: AGAGCCCGCCACAGACATATACGCTTTTGCCTATGTTTCG
DNA 2: CGAAACATAGGCAAAAGCGTATATGTCTGTGGCGGGCTCT
B11: F5 (dsDNA)
DNA 1: TCCGCGAGGGACCAGTCACGCGACTCGCGAAGTGCGCGAATGGCCGCGCCGGCCGACTCA
DNA 2: TGAGTCGGCCGGCGCGGCCATTCGCGCACTTCGCGAGTCGCGTGACTGGTCCCTCGCGGA
B12: OL5 (dsDNA)
DNA 1: ATTCTCTTGCAGAGCCCGCCACAGACATATACGCTTTTGC
DNA 2: GCAAAAGCGTATATGTCTGTGGCGGGCTCTGCAAGAGAAT
B13: F1 (dsDNA)
DNA 1: AGAGCCCGCCACAGACATATACGCTTTTGCCTATGTTTCGTTCAACAAGGAGGCCGGCAC
DNA 2: GTGCCGGCCTCCTTGTTGAACGAAACATAGGCAAAAGCGTATATGTCTGTGGCGGGCTCT
B14: OL1 (dsDNA)
DNA 1: CACCCCTTATGTATATACGTTTTTATCGCGATTCTCTTGC
DNA 2: GCAAGAGAATCGCGATAAAAACGTATATACATAAGGGGTG
B15: OL2 (dsDNA)
DNA 1: TTTTATCGCGATTCTCTTGCAGAGCCCGCCACAGACATAT
DNA 2: ATATGTCTGTGGCGGGCTCTGCAAGAGAATCGCGATAAAA
B16: F2 (dsDNA)
DNA 1: CACCCCTTATGTATATACGTTTTTATCGCGATTCTCTTGCAGAGCCCGCCACAGACATAT
DNA 2: ATATGTCTGTGGCGGGCTCTGCAAGAGAATCGCGATAAAAACGTATATACATAAGGGGTG
B17: F3 (dsDNA)
DNA 1: CCATAAGCCGGATACTACCCGGATACGACTCGGCCGCGGCCACCCCTTATGTATATACGT
DNA 2: ACGTATATACATAAGGGGTGGCCGCGGCCGAGTCGTATCCGGGTAGTATCCGGCTTATGG

For one data set, the target named is T1, Rv0023 (XRE family transcription …). As to the kind of experiment: EMSA; 8 pmol protein. The note with it: protein: recombinant; tags: His (implied by Ni-NTA purification; pET23a, also printed pET21b); chain copies: 2; label: 32P.
Turning to B1, the binding result is “binds”.
The same measure, in the same setting: to B2 belongs “binds”; to B3, “binds”.
As for B4, the binding result is reported as “binds”.
Same read-out and setting: to B5 belongs “binds”; to B6, “binds”.

Staying with this data set, now noted: protein: recombinant; tags: His (implied by Ni-NTA purification; pET23a, also printed pET21b); chain copies: 2; label: 32P; blunt.
B7: the binding result was “no binding”.
Still for that read-out and setting: to B8 belongs “no binding”.
Same read-out and setting: to B9 belongs “no binding”; to B10, “binds”.
Still for that read-out and setting: then B11, with “no binding”; and B12, with “no binding”; and B13, with “binds”.
For the molecule B14, the binding result is reported as “binds”.
Consider B15, for which the binding result is given as “no binding”.
Still for that read-out and setting: then B16, with “binds”; and B17, with “no binding”.
